Experimental findings from paper PMC10991250, “Efficient synthesis 1,4-cyclohexanedicarboxaldehyde by an engineered alcohol oxidase” (Bioresources and Bioprocessing, 2022) are described below.

Substrate in data set [1]: OCC1CCC(CO)CC1
As to the kind of experiment: initial rate of HMCA formation by GC, Michaelis-Menten fit. In kind it is biochemical, Pseudarthrobacter chlorophenolicus. The note with it: 1-100 mM CHDM, air-saturated O2, 100 mM potassium phosphate pH 8.0, 30 °C, 5% DMSO, 0.1 g/L catalase. From the text:
initial rate of HMCA formation by GC, Michaelis-Menten fit on AcCO

Substrate in data set [2]: O=CC1CCC(CO)CC1
In words: initial rate of CHDA formation by GC, Michaelis-Menten fit. In kind it is biochemical, Pseudarthrobacter chlorophenolicus. The note with it: 1-100 mM HMCA, air-saturated O2, 100 mM potassium phosphate pH 8.0, 30 °C, 5% DMSO, 0.1 g/L catalase. From the text:
initial rate of CHDA formation by GC, Michaelis-Menten fit on AcCO

B1: AcCO (Pseudarthrobacter chlorophenolicus A6) (protein)
chain: MHIDNIENLSDRGFDYVVIGGGSAGAAVAARLSEDPDVSVALVEAGPDDRNIPEILQLDRWMELLESGYDWDYPIEPQENGNSFMRHARAKVMGGCSSHNSCIAFWAPREDLDEWESKYGATGWNAANAWPLYKRLETNQDAGPDAPHHGDSGPVHLMNVPPADPSGVALLDACEEAGIPRARFNTGTTVVNGANFFQINRRGDGTRSSSSVSYIHPIIERDNFTLLTGLRARQLVFDADKRCTGVEVVDGAFGRTHRLTARHEVILSTGAIDSPKLLMLSGIGPAEHLAQHGIEVLVDSPGVGENLQDHPEGVVQFEAKQPMVQTSTQWWEIGIFTPTEDGLDRPDLMMHYGSVPFDMNTLRHGYPTTENGFSLTPNVTHARSRGTVRLRSRDFRDKPMVDPRYFTDPEGHDMRVMVAGIRKAREIAAQPAMSAWTGRELSPGVGAQTDEELQDYIRKTHNTVYHPVGTVRMGADDDGMSPLDARLRVKGVTGLRVADASVMPEHVTVNPNITVMMIGERCADLIKADYAGADALEEKELTTSFA
notes: codon-optimized synthetic gene in pET-28a(+) (BamHI/EcoRI), E. coli BL21(DE3), purified by AKTA; FAD-dependent
As for B1, in data set [1], the Km was 15.30 ± 0.14 mM, the kcat worked out at 0.00267 ± 0.000467 s⁻¹ and the kcat/Km came out at 0.167 M⁻¹ s⁻¹. For the same protein, in data set [2], the Km worked out at 26.81 ± 0.19 mM, the kcat was 0.000717 ± 0.000217 s⁻¹ and the kcat/Km stood at 0.0267 M⁻¹ s⁻¹.

B2: AcCO (Pseudarthrobacter chlorophenolicus A6; H351V/S101A) (protein)
chain: MHIDNIENLSDRGFDYVVIGGGSAGAAVAARLSEDPDVSVALVEAGPDDRNIPEILQLDRWMELLESGYDWDYPIEPQENGNSFMRHARAKVMGGCSSHNACIAFWAPREDLDEWESKYGATGWNAANAWPLYKRLETNQDAGPDAPHHGDSGPVHLMNVPPADPSGVALLDACEEAGIPRARFNTGTTVVNGANFFQINRRGDGTRSSSSVSYIHPIIERDNFTLLTGLRARQLVFDADKRCTGVEVVDGAFGRTHRLTARHEVILSTGAIDSPKLLMLSGIGPAEHLAQHGIEVLVDSPGVGENLQDHPEGVVQFEAKQPMVQTSTQWWEIGIFTPTEDGLDRPDLMMVYGSVPFDMNTLRHGYPTTENGFSLTPNVTHARSRGTVRLRSRDFRDKPMVDPRYFTDPEGHDMRVMVAGIRKAREIAAQPAMSAWTGRELSPGVGAQTDEELQDYIRKTHNTVYHPVGTVRMGADDDGMSPLDARLRVKGVTGLRVADASVMPEHVTVNPNITVMMIGERCADLIKADYAGADALEEKELTTSFA
notes: as for B1
Regarding B2, in data set [1], the Km turned out to be 10.21 ± 0.46 mM, the kcat was determined as 0.02183 ± 0.000183 s⁻¹ and the kcat/Km amounted to 2.17 M⁻¹ s⁻¹. Besides, in data set [2], the Km was 14.44 ± 0.46 mM, the kcat was determined as 0.00683 ± 0.000233 s⁻¹ and the kcat/Km amounted to 0.473 M⁻¹ s⁻¹.

B3: AcCO (Pseudarthrobacter chlorophenolicus A6; H351V/N378S/Q329N/S101A) (protein)
chain: MHIDNIENLSDRGFDYVVIGGGSAGAAVAARLSEDPDVSVALVEAGPDDRNIPEILQLDRWMELLESGYDWDYPIEPQENGNSFMRHARAKVMGGCSSHNACIAFWAPREDLDEWESKYGATGWNAANAWPLYKRLETNQDAGPDAPHHGDSGPVHLMNVPPADPSGVALLDACEEAGIPRARFNTGTTVVNGANFFQINRRGDGTRSSSSVSYIHPIIERDNFTLLTGLRARQLVFDADKRCTGVEVVDGAFGRTHRLTARHEVILSTGAIDSPKLLMLSGIGPAEHLAQHGIEVLVDSPGVGENLQDHPEGVVQFEAKQPMVQTSTNWWEIGIFTPTEDGLDRPDLMMVYGSVPFDMNTLRHGYPTTENGFSLTPSVTHARSRGTVRLRSRDFRDKPMVDPRYFTDPEGHDMRVMVAGIRKAREIAAQPAMSAWTGRELSPGVGAQTDEELQDYIRKTHNTVYHPVGTVRMGADDDGMSPLDARLRVKGVTGLRVADASVMPEHVTVNPNITVMMIGERCADLIKADYAGADALEEKELTTSFA
notes: as for B1
For the protein B3, in data set [1], the Km stood at 1.12 ± 0.19 mM, the kcat is 0.0367 ± 0.00717 s⁻¹ and the kcat/Km came to 32.7 M⁻¹ s⁻¹. Besides, in data set [2], the Km stood at 5.24 ± 0.28 mM, the kcat was 0.0157 ± 0.000717 s⁻¹ and the kcat/Km was 3 M⁻¹ s⁻¹.

B4: AcCO (Pseudarthrobacter chlorophenolicus A6; H351V) (protein)
chain: MHIDNIENLSDRGFDYVVIGGGSAGAAVAARLSEDPDVSVALVEAGPDDRNIPEILQLDRWMELLESGYDWDYPIEPQENGNSFMRHARAKVMGGCSSHNSCIAFWAPREDLDEWESKYGATGWNAANAWPLYKRLETNQDAGPDAPHHGDSGPVHLMNVPPADPSGVALLDACEEAGIPRARFNTGTTVVNGANFFQINRRGDGTRSSSSVSYIHPIIERDNFTLLTGLRARQLVFDADKRCTGVEVVDGAFGRTHRLTARHEVILSTGAIDSPKLLMLSGIGPAEHLAQHGIEVLVDSPGVGENLQDHPEGVVQFEAKQPMVQTSTQWWEIGIFTPTEDGLDRPDLMMVYGSVPFDMNTLRHGYPTTENGFSLTPNVTHARSRGTVRLRSRDFRDKPMVDPRYFTDPEGHDMRVMVAGIRKAREIAAQPAMSAWTGRELSPGVGAQTDEELQDYIRKTHNTVYHPVGTVRMGADDDGMSPLDARLRVKGVTGLRVADASVMPEHVTVNPNITVMMIGERCADLIKADYAGADALEEKELTTSFA
notes: as for B1
Regarding B4, in data set [1], the Km was determined as 13.36 ± 0.12 mM, the kcat came out at 0.00683 ± 0.00045 s⁻¹ and the kcat/Km stood at 0.517 M⁻¹ s⁻¹. Moreover, in data set [2], the Km was 16.24 ± 0.11 mM, the kcat came out at 0.004 ± 0.000367 s⁻¹ and the kcat/Km was determined as 0.247 M⁻¹ s⁻¹.

B5: AcCO (Pseudarthrobacter chlorophenolicus A6; H351V/N378S/S101A) (protein)
chain: MHIDNIENLSDRGFDYVVIGGGSAGAAVAARLSEDPDVSVALVEAGPDDRNIPEILQLDRWMELLESGYDWDYPIEPQENGNSFMRHARAKVMGGCSSHNACIAFWAPREDLDEWESKYGATGWNAANAWPLYKRLETNQDAGPDAPHHGDSGPVHLMNVPPADPSGVALLDACEEAGIPRARFNTGTTVVNGANFFQINRRGDGTRSSSSVSYIHPIIERDNFTLLTGLRARQLVFDADKRCTGVEVVDGAFGRTHRLTARHEVILSTGAIDSPKLLMLSGIGPAEHLAQHGIEVLVDSPGVGENLQDHPEGVVQFEAKQPMVQTSTQWWEIGIFTPTEDGLDRPDLMMVYGSVPFDMNTLRHGYPTTENGFSLTPSVTHARSRGTVRLRSRDFRDKPMVDPRYFTDPEGHDMRVMVAGIRKAREIAAQPAMSAWTGRELSPGVGAQTDEELQDYIRKTHNTVYHPVGTVRMGADDDGMSPLDARLRVKGVTGLRVADASVMPEHVTVNPNITVMMIGERCADLIKADYAGADALEEKELTTSFA
notes: as for B1
For the protein B5, in data set [1], the Km is reported as 7.63 ± 0.72 mM, the kcat came out at 0.0312 ± 0.002 s⁻¹ and the kcat/Km came to 4 M⁻¹ s⁻¹. Also, in data set [2], the Km came out at 6.81 ± 0.13 mM, the kcat was 0.00883 ± 0.002 s⁻¹ and the kcat/Km was found to be 1.3 M⁻¹ s⁻¹.

B6: AcCO (Pseudarthrobacter chlorophenolicus A6; S101A) (protein)
chain: MHIDNIENLSDRGFDYVVIGGGSAGAAVAARLSEDPDVSVALVEAGPDDRNIPEILQLDRWMELLESGYDWDYPIEPQENGNSFMRHARAKVMGGCSSHNACIAFWAPREDLDEWESKYGATGWNAANAWPLYKRLETNQDAGPDAPHHGDSGPVHLMNVPPADPSGVALLDACEEAGIPRARFNTGTTVVNGANFFQINRRGDGTRSSSSVSYIHPIIERDNFTLLTGLRARQLVFDADKRCTGVEVVDGAFGRTHRLTARHEVILSTGAIDSPKLLMLSGIGPAEHLAQHGIEVLVDSPGVGENLQDHPEGVVQFEAKQPMVQTSTQWWEIGIFTPTEDGLDRPDLMMHYGSVPFDMNTLRHGYPTTENGFSLTPNVTHARSRGTVRLRSRDFRDKPMVDPRYFTDPEGHDMRVMVAGIRKAREIAAQPAMSAWTGRELSPGVGAQTDEELQDYIRKTHNTVYHPVGTVRMGADDDGMSPLDARLRVKGVTGLRVADASVMPEHVTVNPNITVMMIGERCADLIKADYAGADALEEKELTTSFA
notes: as for B1
B6: in data set [1], the Km was 13.45 ± 0.23 mM, the kcat amounted to 0.00617 ± 0.00107 s⁻¹ and the kcat/Km came out at 0.45 M⁻¹ s⁻¹. In addition, in data set [2], the Michaelis constant (Km) is recorded as 20.42 ± 0.12 mM, the turnover number (kcat) was 0.00233 ± 0.000367 s⁻¹ and the kcat/Km came out at 0.114 M⁻¹ s⁻¹.

As usually defined, the Km is the substrate concentration at which the rate is half of its maximum. As usually defined, the kcat is the number of substrate molecules converted per active site and unit of time at saturation. The kcat/Km is the turnover number divided by the Michaelis constant.
